Laboratory results reported in patent publication US20150246136A1 (Bayer, published 2015).
Where “and” joins values, the source holds several entries; their conditions need not be identical. Equal values may be shown once.

What follows are binders tested against Mesothelin (SwissProt reference Q13421-3) (Homo sapiens, UniProt Q13421 37-622) (assay: cell-based or functional assay).

Binder | IC50 (nM), HT29 meso+ cells, MTT proliferation assay
Example 56, conjugate of anti-mesothelin antibody MF-Ta (antibody, human IgG1, lambda, V domains shown, toxophore-linker on Cys sulfur, sites not given) VH: QVELVQSGAEVKKPGESLKISCKGSGYSFTSYWIGWVRQAPGKGLEWMGIIDPGDSRTRYSPSFQGQVTISADKSISTAYLQWSSLKASDTAMYYCARGQLYGGTYMDGWGQGTLVTVSS VL: DIALTQPASVSGSPGQSITISCTGTSSDIGGYNSVSWYQQHPGKAPKLMIYGVNNRPSGVSNRFSGSKSGNTASLTISGLQAEDEADYYCSSYDIESATPVFGGGTKLTVLG | 0.17 nM
Example 58, conjugate of anti-mesothelin antibody MF-Ta (antibody, human IgG1, lambda, V domains shown, toxophore-linker on Lys NH, sites not given) VH: QVELVQSGAEVKKPGESLKISCKGSGYSFTSYWIGWVRQAPGKGLEWMGIIDPGDSRTRYSPSFQGQVTISADKSISTAYLQWSSLKASDTAMYYCARGQLYGGTYMDGWGQGTLVTVSS VL: DIALTQPASVSGSPGQSITISCTGTSSDIGGYNSVSWYQQHPGKAPKLMIYGVNNRPSGVSNRFSGSKSGNTASLTISGLQAEDEADYYCSSYDIESATPVFGGGTKLTVLG | 5 nM
Example 74, conjugate of anti-mesothelin antibody MF-Ta (antibody, human IgG1, lambda, V domains shown, toxophore-linker on Cys sulfur, sites not given) VH: QVELVQSGAEVKKPGESLKISCKGSGYSFTSYWIGWVRQAPGKGLEWMGIIDPGDSRTRYSPSFQGQVTISADKSISTAYLQWSSLKASDTAMYYCARGQLYGGTYMDGWGQGTLVTVSS VL: DIALTQPASVSGSPGQSITISCTGTSSDIGGYNSVSWYQQHPGKAPKLMIYGVNNRPSGVSNRFSGSKSGNTASLTISGLQAEDEADYYCSSYDIESATPVFGGGTKLTVLG | 9 nM
Example 61, conjugate of anti-mesothelin antibody MF-Ta (antibody, human IgG1, lambda, V domains shown, toxophore-linker on Cys sulfur, sites not given) VH: QVELVQSGAEVKKPGESLKISCKGSGYSFTSYWIGWVRQAPGKGLEWMGIIDPGDSRTRYSPSFQGQVTISADKSISTAYLQWSSLKASDTAMYYCARGQLYGGTYMDGWGQGTLVTVSS VL: DIALTQPASVSGSPGQSITISCTGTSSDIGGYNSVSWYQQHPGKAPKLMIYGVNNRPSGVSNRFSGSKSGNTASLTISGLQAEDEADYYCSSYDIESATPVFGGGTKLTVLG | 0.019 nM
Example 67, conjugate of anti-mesothelin antibody MF-Ta (antibody, human IgG1, lambda, V domains shown, toxophore-linker on Cys sulfur, sites not given) VH: QVELVQSGAEVKKPGESLKISCKGSGYSFTSYWIGWVRQAPGKGLEWMGIIDPGDSRTRYSPSFQGQVTISADKSISTAYLQWSSLKASDTAMYYCARGQLYGGTYMDGWGQGTLVTVSS VL: DIALTQPASVSGSPGQSITISCTGTSSDIGGYNSVSWYQQHPGKAPKLMIYGVNNRPSGVSNRFSGSKSGNTASLTISGLQAEDEADYYCSSYDIESATPVFGGGTKLTVLG | 0.015 nM
Example 66, conjugate of anti-mesothelin antibody MF-Ta (antibody, human IgG1, lambda, V domains shown, toxophore-linker on Cys sulfur, sites not given) VH: QVELVQSGAEVKKPGESLKISCKGSGYSFTSYWIGWVRQAPGKGLEWMGIIDPGDSRTRYSPSFQGQVTISADKSISTAYLQWSSLKASDTAMYYCARGQLYGGTYMDGWGQGTLVTVSS VL: DIALTQPASVSGSPGQSITISCTGTSSDIGGYNSVSWYQQHPGKAPKLMIYGVNNRPSGVSNRFSGSKSGNTASLTISGLQAEDEADYYCSSYDIESATPVFGGGTKLTVLG | 1.5 nM
Example 70, conjugate of anti-mesothelin antibody MF-Ta (antibody, human IgG1, lambda, V domains shown, toxophore-linker on Cys sulfur, sites not given) VH: QVELVQSGAEVKKPGESLKISCKGSGYSFTSYWIGWVRQAPGKGLEWMGIIDPGDSRTRYSPSFQGQVTISADKSISTAYLQWSSLKASDTAMYYCARGQLYGGTYMDGWGQGTLVTVSS VL: DIALTQPASVSGSPGQSITISCTGTSSDIGGYNSVSWYQQHPGKAPKLMIYGVNNRPSGVSNRFSGSKSGNTASLTISGLQAEDEADYYCSSYDIESATPVFGGGTKLTVLG | 0.02 nM
Example 68, conjugate of anti-mesothelin antibody MF-Ta (antibody, human IgG1, lambda, V domains shown, toxophore-linker on Cys sulfur, sites not given) VH: QVELVQSGAEVKKPGESLKISCKGSGYSFTSYWIGWVRQAPGKGLEWMGIIDPGDSRTRYSPSFQGQVTISADKSISTAYLQWSSLKASDTAMYYCARGQLYGGTYMDGWGQGTLVTVSS VL: DIALTQPASVSGSPGQSITISCTGTSSDIGGYNSVSWYQQHPGKAPKLMIYGVNNRPSGVSNRFSGSKSGNTASLTISGLQAEDEADYYCSSYDIESATPVFGGGTKLTVLG | 2 nM
Example 60, conjugate of anti-mesothelin antibody MF-Ta (antibody, human IgG1, lambda, V domains shown, toxophore-linker on Cys sulfur, sites not given) VH: QVELVQSGAEVKKPGESLKISCKGSGYSFTSYWIGWVRQAPGKGLEWMGIIDPGDSRTRYSPSFQGQVTISADKSISTAYLQWSSLKASDTAMYYCARGQLYGGTYMDGWGQGTLVTVSS VL: DIALTQPASVSGSPGQSITISCTGTSSDIGGYNSVSWYQQHPGKAPKLMIYGVNNRPSGVSNRFSGSKSGNTASLTISGLQAEDEADYYCSSYDIESATPVFGGGTKLTVLG | 0.06 nM and 0.16 nM
Example 59, conjugate of anti-mesothelin antibody MF-Ta (antibody, human IgG1, lambda, V domains shown, toxophore-linker on Lys NH, sites not given) VH: QVELVQSGAEVKKPGESLKISCKGSGYSFTSYWIGWVRQAPGKGLEWMGIIDPGDSRTRYSPSFQGQVTISADKSISTAYLQWSSLKASDTAMYYCARGQLYGGTYMDGWGQGTLVTVSS VL: DIALTQPASVSGSPGQSITISCTGTSSDIGGYNSVSWYQQHPGKAPKLMIYGVNNRPSGVSNRFSGSKSGNTASLTISGLQAEDEADYYCSSYDIESATPVFGGGTKLTVLG | 1 nM
Example 69, conjugate of anti-mesothelin antibody MF-Ta (antibody, human IgG1, lambda, V domains shown, toxophore-linker on Cys sulfur, sites not given) VH: QVELVQSGAEVKKPGESLKISCKGSGYSFTSYWIGWVRQAPGKGLEWMGIIDPGDSRTRYSPSFQGQVTISADKSISTAYLQWSSLKASDTAMYYCARGQLYGGTYMDGWGQGTLVTVSS VL: DIALTQPASVSGSPGQSITISCTGTSSDIGGYNSVSWYQQHPGKAPKLMIYGVNNRPSGVSNRFSGSKSGNTASLTISGLQAEDEADYYCSSYDIESATPVFGGGTKLTVLG | 0.07 nM
Example 72, conjugate of anti-mesothelin antibody MF-Ta (antibody, human IgG1, lambda, V domains shown, toxophore-linker on Cys sulfur, sites not given) VH: QVELVQSGAEVKKPGESLKISCKGSGYSFTSYWIGWVRQAPGKGLEWMGIIDPGDSRTRYSPSFQGQVTISADKSISTAYLQWSSLKASDTAMYYCARGQLYGGTYMDGWGQGTLVTVSS VL: DIALTQPASVSGSPGQSITISCTGTSSDIGGYNSVSWYQQHPGKAPKLMIYGVNNRPSGVSNRFSGSKSGNTASLTISGLQAEDEADYYCSSYDIESATPVFGGGTKLTVLG | 0.05 nM
Example 65, conjugate of anti-mesothelin antibody MF-Ta (antibody, human IgG1, lambda, V domains shown, toxophore-linker on Cys sulfur, sites not given) VH: QVELVQSGAEVKKPGESLKISCKGSGYSFTSYWIGWVRQAPGKGLEWMGIIDPGDSRTRYSPSFQGQVTISADKSISTAYLQWSSLKASDTAMYYCARGQLYGGTYMDGWGQGTLVTVSS VL: DIALTQPASVSGSPGQSITISCTGTSSDIGGYNSVSWYQQHPGKAPKLMIYGVNNRPSGVSNRFSGSKSGNTASLTISGLQAEDEADYYCSSYDIESATPVFGGGTKLTVLG | 0.14 nM
Example 57, conjugate of anti-mesothelin antibody MF-Ta (antibody, human IgG1, lambda, V domains shown, toxophore-linker on Cys sulfur, sites not given) VH: QVELVQSGAEVKKPGESLKISCKGSGYSFTSYWIGWVRQAPGKGLEWMGIIDPGDSRTRYSPSFQGQVTISADKSISTAYLQWSSLKASDTAMYYCARGQLYGGTYMDGWGQGTLVTVSS VL: DIALTQPASVSGSPGQSITISCTGTSSDIGGYNSVSWYQQHPGKAPKLMIYGVNNRPSGVSNRFSGSKSGNTASLTISGLQAEDEADYYCSSYDIESATPVFGGGTKLTVLG | 0.4 nM

The remaining lines, values ahead:

IC50 (nM), HT29 meso+ cells, MTT proliferation assay | Binder
0.11 nM | Example 64, conjugate of anti-mesothelin antibody MF-Ta (antibody, human IgG1, lambda, V domains shown, toxophore-linker on Cys sulfur, sites not given) VH: QVELVQSGAEVKKPGESLKISCKGSGYSFTSYWIGWVRQAPGKGLEWMGIIDPGDSRTRYSPSFQGQVTISADKSISTAYLQWSSLKASDTAMYYCARGQLYGGTYMDGWGQGTLVTVSS VL: DIALTQPASVSGSPGQSITISCTGTSSDIGGYNSVSWYQQHPGKAPKLMIYGVNNRPSGVSNRFSGSKSGNTASLTISGLQAEDEADYYCSSYDIESATPVFGGGTKLTVLG
0.03 nM | Example 63, conjugate of anti-mesothelin antibody MF-Ta (antibody, human IgG1, lambda, V domains shown, toxophore-linker on Cys sulfur, sites not given) VH: QVELVQSGAEVKKPGESLKISCKGSGYSFTSYWIGWVRQAPGKGLEWMGIIDPGDSRTRYSPSFQGQVTISADKSISTAYLQWSSLKASDTAMYYCARGQLYGGTYMDGWGQGTLVTVSS VL: DIALTQPASVSGSPGQSITISCTGTSSDIGGYNSVSWYQQHPGKAPKLMIYGVNNRPSGVSNRFSGSKSGNTASLTISGLQAEDEADYYCSSYDIESATPVFGGGTKLTVLG
0.6 nM | Example 71, conjugate of anti-mesothelin antibody MF-Ta (antibody, human IgG1, lambda, V domains shown, toxophore-linker on Cys sulfur, sites not given) VH: QVELVQSGAEVKKPGESLKISCKGSGYSFTSYWIGWVRQAPGKGLEWMGIIDPGDSRTRYSPSFQGQVTISADKSISTAYLQWSSLKASDTAMYYCARGQLYGGTYMDGWGQGTLVTVSS VL: DIALTQPASVSGSPGQSITISCTGTSSDIGGYNSVSWYQQHPGKAPKLMIYGVNNRPSGVSNRFSGSKSGNTASLTISGLQAEDEADYYCSSYDIESATPVFGGGTKLTVLG
25 nM | Example 73, conjugate of anti-mesothelin antibody MF-Ta (antibody, human IgG1, lambda, V domains shown, toxophore-linker on Cys sulfur, sites not given) VH: QVELVQSGAEVKKPGESLKISCKGSGYSFTSYWIGWVRQAPGKGLEWMGIIDPGDSRTRYSPSFQGQVTISADKSISTAYLQWSSLKASDTAMYYCARGQLYGGTYMDGWGQGTLVTVSS VL: DIALTQPASVSGSPGQSITISCTGTSSDIGGYNSVSWYQQHPGKAPKLMIYGVNNRPSGVSNRFSGSKSGNTASLTISGLQAEDEADYYCSSYDIESATPVFGGGTKLTVLG
0.35 nM | Example 76, conjugate of anti-mesothelin antibody MF-Ta (antibody, human IgG1, lambda, V domains shown, toxophore-linker on Cys sulfur, sites not given) VH: QVELVQSGAEVKKPGESLKISCKGSGYSFTSYWIGWVRQAPGKGLEWMGIIDPGDSRTRYSPSFQGQVTISADKSISTAYLQWSSLKASDTAMYYCARGQLYGGTYMDGWGQGTLVTVSS VL: DIALTQPASVSGSPGQSITISCTGTSSDIGGYNSVSWYQQHPGKAPKLMIYGVNNRPSGVSNRFSGSKSGNTASLTISGLQAEDEADYYCSSYDIESATPVFGGGTKLTVLG
0.2 nM | Example 75, conjugate of anti-mesothelin antibody MF-Ta (antibody, human IgG1, lambda, V domains shown, toxophore-linker on Lys NH, sites not given) VH: QVELVQSGAEVKKPGESLKISCKGSGYSFTSYWIGWVRQAPGKGLEWMGIIDPGDSRTRYSPSFQGQVTISADKSISTAYLQWSSLKASDTAMYYCARGQLYGGTYMDGWGQGTLVTVSS VL: DIALTQPASVSGSPGQSITISCTGTSSDIGGYNSVSWYQQHPGKAPKLMIYGVNNRPSGVSNRFSGSKSGNTASLTISGLQAEDEADYYCSSYDIESATPVFGGGTKLTVLG
20 nM | Example 62, conjugate of anti-mesothelin antibody MF-Ta (antibody, human IgG1, lambda, V domains shown, toxophore-linker on Cys sulfur, sites not given) VH: QVELVQSGAEVKKPGESLKISCKGSGYSFTSYWIGWVRQAPGKGLEWMGIIDPGDSRTRYSPSFQGQVTISADKSISTAYLQWSSLKASDTAMYYCARGQLYGGTYMDGWGQGTLVTVSS VL: DIALTQPASVSGSPGQSITISCTGTSSDIGGYNSVSWYQQHPGKAPKLMIYGVNNRPSGVSNRFSGSKSGNTASLTISGLQAEDEADYYCSSYDIESATPVFGGGTKLTVLG
